Measured values: PMC6241527

Assays:
[1] = target: H1 hemagglutinin (A/Solomon Islands/3/06) (influenza A virus (A/Solomon Islands/3/06, H1)); assay: crystal structure
[2] = target: H7 hemagglutinin (A/Shanghai/2/13) (influenza A virus (A/Shanghai/2/13, H7)); assay: crystal structure

| Substance | stoichiometry N [1] | stoichiometry N [2] |
| --- | --- | --- |
| H1 hemagglutinin (A/Solomon Islands/3/06) (natural protein) | 3 | – |
| H7 hemagglutinin (A/Shanghai/2/13) (natural protein) | – | 3 |
